In patent publication US20210147847, “APTAMERS FOR TARGETED ACTIVATON OF T CELL-MEDIATED IMMUNITY” (Rheinische Friedrich-Wilhelms-Universitat Bonn, published 2021):

Biological target: T1, Fc-CTL (mannose receptor CTLD4-7 fused to human IgG1 Fc) (Mus musculus, UniProt Q61830 Q61830:655-1212)
T1 chain: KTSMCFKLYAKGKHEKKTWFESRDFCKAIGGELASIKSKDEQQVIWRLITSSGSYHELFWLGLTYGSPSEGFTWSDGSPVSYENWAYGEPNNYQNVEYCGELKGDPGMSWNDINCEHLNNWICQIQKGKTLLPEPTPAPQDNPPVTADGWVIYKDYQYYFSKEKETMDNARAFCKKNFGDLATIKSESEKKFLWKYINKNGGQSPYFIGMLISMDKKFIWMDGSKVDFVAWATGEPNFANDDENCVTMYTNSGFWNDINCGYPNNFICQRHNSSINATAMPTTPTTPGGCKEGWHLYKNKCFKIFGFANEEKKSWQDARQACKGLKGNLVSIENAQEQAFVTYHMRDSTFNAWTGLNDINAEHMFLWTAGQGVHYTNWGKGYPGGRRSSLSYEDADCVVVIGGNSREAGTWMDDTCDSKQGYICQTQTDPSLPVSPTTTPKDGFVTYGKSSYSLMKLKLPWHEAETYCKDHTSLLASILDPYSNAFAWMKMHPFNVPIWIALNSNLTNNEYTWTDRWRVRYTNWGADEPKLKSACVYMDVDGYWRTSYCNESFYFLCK
Experiment: filter; 500 nM protein, PBS, 1 mM MgCl2, 1 mM CaCl2, BSA, 37 C; more than 2-fold higher than Fc-FN
Settings: tags: human IgG1 Fc fusion; expressed in HEK293T from pIgplus-CTLD4-7; protein G purified; chain copies: 2; label: 5'-32P or 5'-ATTO 647N
Procedure: Representative DNA sequences of each motif family (FIG. 14A-B), namely CTL #5, CTL #9, CTL #6 and CTL #16, and unique sequences CTL #1, #2, #3, #14 and #18 (FIG. 39) were chosen for further analysis. Therefore, their binding ability to Fc-CTL, Fc-FN and the IgG1 Fc protein tag was monitored by radioactive filter retention assay (FIG. 15). DNA was end labeled with ³²P and mixed with the corresponding proteins at a concentration of 500 nM. The mixtures were incubated in selection buffer for 30 minutes at 37° C. and applied on a nitrocellulose membrane. Finally, the amount of bound DNA was detected by autoradiography.

B1: CTL #5 (ssDNA)
DNA: GCTGTGTGACTCCTGCAATGCAATCTAGCTGACAATGGGGGGGAAGAATGTGGGTGGGTGGCAGCTGTATCTTGTCTCC
- binding result: binds
